# Experimental data as given in patent US6528283.
# What was measured:
# Test in all cases: cell-based or functional assay
# Settings in all cases: scale: β-galactosidase activity units
# [1] = molecular target: GAL4 DNA-binding domain alone (empty pAS2-1 vector, negative control bait) (UniProt P04386)
# [2] = molecular target: hD52 bait (GAL4 DNA-binding domain fused to full-length hD52, pAS2-1hD52) (human)
# [3] = molecular target: hD53 bait (GAL4 DNA-binding domain fused to full-length hD53, pAS2-1hD53) (human)
# [4] = molecular target: hD54+ins2 bait (GAL4 DNA-binding domain fused to hD54+ins2, pAS2-1hD54+ins2) (human)
# [5] = molecular target: hD54-ins2 bait (GAL4 DNA-binding domain fused to hD54-ins2, pAS2-1hD54-ins2) (human)
# [6] = molecular target: mD52 bait (GAL4 DNA-binding domain fused to full-length mD52, pAS2-1mD52) (mouse)
# [7] = molecular target: mD52 bait (GAL4 DNA-binding domain fused to full-length mD52, pAS2-1mD52) (mouse); remark: listed apart in the source
# [8] = molecular target: mD52(1-95) bait (GAL4 DNA-binding domain fused to the N-terminal half of mD52, pAS2-1mD52(1-95)) (mouse)
# [9] = molecular target: mD52(95-185) bait (GAL4 DNA-binding domain fused to the C-terminal half of mD52, pAS2-1mD52(95-185)) (mouse)
Substance,"β-galactosidase activity, yeast two-hybrid (Y190) [1]","β-galactosidase activity, yeast two-hybrid (Y190) [2]","β-galactosidase activity, yeast two-hybrid (Y190) [3]","β-galactosidase activity, yeast two-hybrid (Y190) [4]","β-galactosidase activity, yeast two-hybrid (Y190) [5]","β-galactosidase activity, yeast two-hybrid (Y190) [6]","β-galactosidase activity, yeast two-hybrid (Y190) [7]","β-galactosidase activity, yeast two-hybrid (Y190) [8]","β-galactosidase activity, yeast two-hybrid (Y190) [9]"
"GAL4 activation domain alone (empty pACT2 vector, negative control interactor) (from UniProt P04386 768-881)",0,0,0.14,0,0,0,0.34,0.36,0.23
"hD54+ins2 interactor (GAL4 activation domain fused to hD54+ins2, pACT2hD54+ins2) (from UniProt P04386 768-881)",0,2.03,6.01,5.98,3.51,0.48,–,–,–

# Further lines, results first:
"β-galactosidase activity, yeast two-hybrid (Y190) [1]","β-galactosidase activity, yeast two-hybrid (Y190) [2]","β-galactosidase activity, yeast two-hybrid (Y190) [3]","β-galactosidase activity, yeast two-hybrid (Y190) [4]","β-galactosidase activity, yeast two-hybrid (Y190) [5]","β-galactosidase activity, yeast two-hybrid (Y190) [6]","β-galactosidase activity, yeast two-hybrid (Y190) [7]","β-galactosidase activity, yeast two-hybrid (Y190) [8]","β-galactosidase activity, yeast two-hybrid (Y190) [9]",Substance
0.17,0.87,3,0.85,1.74,0.16,–,–,–,"hD52 interactor (GAL4 activation domain fused to hD52, pAD-GAL4hD52, library clone starting at nt 46) (from UniProt P04386 761-881)"
0.45,1.15,2.26,2.03,1.07,0.44,–,–,–,"hD54-ins2 interactor (GAL4 activation domain fused to hD54-ins2, pACT2hD54-ins2) (from UniProt P04386 768-881)"
0,1.3,5.71,4.25,2.37,0.42,–,–,–,"mD52(1-163) interactor (GAL4 activation domain fused to mD52 amino acids 1-163, pACT2mD52(1-163)) (from UniProt P04386 768-881)"
